US20130209454A1

Assays:
[1] = target: Env of HIV-1 strain AC10.0.29 (HIV-1); test: cell-based or functional assay
[2] = target: Env of HIV-1 strain CAP210.2.00.E8 (HIV-1); test: cell-based or functional assay
[3] = target: Env of HIV-1 strain CAP45.2.00.G3 (HIV-1); test: cell-based or functional assay
[4] = target: Env of HIV-1 strain Du172.17 (HIV-1); test: cell-based or functional assay
[5] = target: Env of HIV-1 strain SC422661.8 (HIV-1); test: cell-based or functional assay
[6] = target: Env of HIV-1 strain TRO.11 (HIV-1); test: cell-based or functional assay
[7] = target: HIV-1 strain AC10.0.29 envelope (gp120) (HIV-1); test: cell-based or functional assay
[8] = target: HIV-1 strain CAP210.2.00.E8 envelope (gp120) (HIV-1); test: cell-based or functional assay
[9] = target: HIV-1 strain CAP45.2.00.G3 envelope (gp120) (HIV-1); test: cell-based or functional assay
[10] = target: HIV-1 strain Du172.17 envelope (gp120) (HIV-1); test: cell-based or functional assay
[11] = target: HIV-1 strain SC422661.8 envelope (gp120) (HIV-1); test: cell-based or functional assay
[12] = target: HIV-1 strain TRO.11 envelope (gp120) (HIV-1); test: cell-based or functional assay
[13] = target: gp120 (ZM135M.PL10a) of the CD4-gp120 complex structure (HIV-1); test: CD4-gp120 complex structure, AreaIMol, 1.4 Å probe
[14] = target: 93TH057 gp120 core (HIV-1)
[15] = target: CAP244.2.00.D3 gp120 core (HIV-1)
[16] = target: Q259.d2.17 gp120 core (HIV-1)
[17] = target: HIV-1 Env of strain AC10.0.29 (HIV-1); test: cell-based or functional assay
[18] = target: HIV-1 Env of strain CAP45.2.00.G3 (HIV-1); test: cell-based or functional assay
[19] = target: HIV-1 Env of strain QH0692.42 (HIV-1); test: cell-based or functional assay
[20] = target: HIV-1 Env of strain SC422661.8 (HIV-1); test: cell-based or functional assay
[21] = target: HIV-1 Env of strain T257-31 (HIV-1); test: cell-based or functional assay
[22] = target: HIV-1 Env of strain TRO.11 (HIV-1); test: cell-based or functional assay
[23] = target: HIV-1 Env of strain ZM214M.PL15 (HIV-1); test: cell-based or functional assay
[24] = target: 93TH057 gp120 core (HIV-1); test: structure PDB 3NGB, AreaIMol, 1.4 Å probe
[25] = target: HIV-1 Env of strain 3016.v5.c45 (HIV-1); test: cell-based or functional assay
[26] = target: HIV-1 Env of strain C2101.c01 (HIV-1); test: cell-based or functional assay
[27] = target: HIV-1 strain QH0692.42 envelope (gp120) (HIV-1); test: cell-based or functional assay
[28] = target: HIV-1 strain T257-31 envelope (gp120) (HIV-1); test: cell-based or functional assay
[29] = target: HIV-1 strain ZM214M.PL15 envelope (gp120) (HIV-1); test: cell-based or functional assay

Chain of NIH45-46 Fab (C-terminal 6x-His tagged heavy chain, SPR) (VH): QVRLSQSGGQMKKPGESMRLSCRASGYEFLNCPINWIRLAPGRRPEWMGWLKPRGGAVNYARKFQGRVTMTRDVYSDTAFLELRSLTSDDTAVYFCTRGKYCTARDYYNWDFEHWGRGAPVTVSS
Chain of NIH45-46 Fab (C-terminal 6x-His tagged heavy chain, SPR) (V domain): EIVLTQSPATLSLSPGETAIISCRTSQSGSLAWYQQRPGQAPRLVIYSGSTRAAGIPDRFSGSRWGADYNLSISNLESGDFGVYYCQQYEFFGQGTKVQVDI

| Substance | IC50 [1] [µg/mL] | IC50 [2] [µg/mL] | IC50 [3] [µg/mL] | IC50 [4] [µg/mL] | IC50 [5] [µg/mL] | IC50 [6] [µg/mL] | further results |
| --- | --- | --- | --- | --- | --- | --- | --- |
| 3BNC60 T54A (antibody) | 2.6 | 0.1 | > 50 | > 50 | 0.027 | 0.003 | – |
| 3BNC60 T54D (antibody) | > 50 | > 50 | > 50 | > 50 | 0.556 | 0.036 | – |
| 3BNC60 T54E (antibody) | 2.92 | > 50 | > 50 | > 50 | 0.075 | 0.004 | – |
| 3BNC60 T54F (antibody) | – | 3.4 | – | 2.2 | 0.025 | 0.023 | – |
| 3BNC60 T54G (antibody) | 0.623 | 11.9 | > 50 | 0.02 | 0.01 | 0.0003 | – |
| 3BNC60 T54H (antibody) | > 50 | 1.6 | 6.64 | 0.055 | 0.003 | 0.011 | – |
| 3BNC60 T54I (antibody) | > 50 | > 50 | > 50 | 21.8 | 0.054 | 0.027 | – |
| 3BNC60 T54K (antibody) | > 50 | > 50 | > 50 | > 50 | 0.024 | 0.029 | – |
| 3BNC60 T54L (antibody) | > 50 | 30.7 | > 50 | 3.59 | 0.034 | 0.019 | – |
| 3BNC60 T54M (antibody) | > 50 | 25 | > 50 | 1.43 | 0.032 | 0.019 | – |
| 3BNC60 T54N (antibody) | > 50 | 16.3 | 16.7 | 0.662 | 0.025 | 0.008 | – |
| 3BNC60 T54P (antibody) | > 50 | > 50 | > 50 | > 50 | 0.143 | 0.048 | – |
| 3BNC60 T54Q (antibody) | 9.04 | 7.4 | 6.66 | 0.243 | 0.038 | 0.006 | – |
| 3BNC60 T54R (antibody) | > 50 | 5 | > 50 | 2.15 | 0.014 | 0.006 | – |
| 3BNC60 T54S (antibody) | > 50 | 14.7 | 41.7 | 0.92 | 0.036 | 0.02 | – |
| 3BNC60 T54V (antibody) | > 50 | 42.8 | > 50 | 7.36 | 0.039 | 0.024 | – |
| 3BNC60 T54W (antibody) | – | 2.6 | – | 2.2 | 0.031 | 0.021 | – |
| 3BNC60 T54W IgG (antibody) | – | – | – | – | – | – | neutralization IC50 [7]: 3.1 µg/mL; neutralization IC50 [8]: 5 µg/mL; neutralization IC50 [9]: 19 µg/mL; neutralization IC50 [10]: 0.04 µg/mL; neutralization IC50 [11]: 0.1 µg/mL; neutralization IC50 [12]: 0.06 µg/mL |
| 3BNC60 T54Y (antibody) | – | 2.9 | – | 2.2 | 0.02 | 0.012 | – |
| 3BNC117 T54W IgG (antibody) | – | – | – | – | – | – | neutralization IC50 [7]: 2.8 µg/mL; neutralization IC50 [8]: 2.8 µg/mL; neutralization IC50 [9]: 23 µg/mL; neutralization IC50 [10]: 0.9 µg/mL; neutralization IC50 [11]: 0.07 µg/mL; neutralization IC50 [12]: 0.6 µg/mL |
| CD4 (from UniProt P01730 26-208) (receptor) | – | – | – | – | – | – | buried surface area on gp120, Inner domain & bridging sheet [13]: 400 Å^2; buried surface area on gp120, Loop D + NAG [13]: 136 Å^2; buried surface area on gp120, Outer domain exit loop [13]: 97 Å^2; buried surface area on gp120, V5 [13]: 155 Å^2; buried surface area on gp120, β-15/α-3 + NAG [13]: 263 Å^2; buried surface area on gp120, β-24 [13]: 14 Å^2; buried surface area, Interface on Fab or CD4 [13]: 1060 Å^2; buried surface area, Total gp120 [13]: 973 Å^2 |
| NIH45-46 Fab (C-terminal 6x-His tagged heavy chain, SPR) | – | – | – | – | – | – | Kd [14]: 160 nM; koff [14]: 0.0048 s⁻¹; kon [14]: 31000 M⁻¹ s⁻¹; Kd [15]: 97 nM; koff [15]: 0.0067 s⁻¹; kon [15]: 69000 M⁻¹ s⁻¹; Kd [16]: 190 nM; koff [16]: 0.01 s⁻¹; kon [16]: 55000 M⁻¹ s⁻¹ |
| NIH45-46 Y99dA IgG (antibody) | – | – | – | – | – | – | neutralization IC50 [17]: 4.4 µg/mL; neutralization IC50 [18]: > 50 µg/mL; neutralization IC50 [19]: 2.1 µg/mL; neutralization IC50 [20]: 0.08 µg/mL; neutralization IC50 [21]: 2.4 µg/mL; neutralization IC50 [22]: > 50 µg/mL; neutralization IC50 [23]: 1.1 µg/mL |
| VRC01 Fab (structure of VRC01-93TH057, PDB code 3NGB) | – | – | – | – | – | – | buried surface area on gp120, Inner domain & bridging sheet [24]: 157 Å^2; buried surface area on gp120, Loop D + NAG [24]: 433 Å^2; buried surface area on gp120, Outer domain exit loop [24]: 57 Å^2; buried surface area on gp120, V5 [24]: 328 Å^2; buried surface area on gp120, β-15/α-3 + NAG [24]: 208 Å^2; buried surface area on gp120, β-24 [24]: 43 Å^2; buried surface area, Interface on Fab or CD4 [24]: 1210 Å^2; buried surface area, Total gp120 [24]: 1220 Å^2; total buried surface area, light chain with gp120 [24]: 681 Å^2; buried surface area, CDR3 ([24]; VRC01 heavy chain): 117 Å^2; buried surface area, Interface on gp120 ([24]; VRC01 heavy chain): 882 Å^2; buried surface area, Total Fab ([24]; VRC01 heavy chain): 892 Å^2; buried surface area, CDR3 ([24]; VRC01 light chain): 165 Å^2; buried surface area, Interface on gp120 ([24]; VRC01 light chain): 367 Å^2; buried surface area, Total Fab ([24]; VRC01 light chain): 314 Å^2 |
| VRC01 IgG (antibody) | – | – | – | – | – | – | neutralization IC50 [25]: 0.16 µg/mL; neutralization IC50 [26]: 0.36 µg/mL; neutralization IC50 [7]: 0.8 µg/mL; neutralization IC50 [9]: 1.8 µg/mL; neutralization IC50 [27]: 0.7 µg/mL; neutralization IC50 [11]: 0.2 µg/mL; neutralization IC50 [28]: 1 µg/mL; neutralization IC50 [12]: 0.5 µg/mL; neutralization IC50 [29]: 0.8 µg/mL |
| VRC01 heavy chain paired with the NIH45-46 light chain (IgG) (antibody) | – | – | – | – | – | – | neutralization IC50 [7]: 4.5 µg/mL; neutralization IC50 [9]: > 50 µg/mL; neutralization IC50 [27]: 1.2 µg/mL; neutralization IC50 [11]: 0.4 µg/mL; neutralization IC50 [28]: 15 µg/mL; neutralization IC50 [12]: 24 µg/mL; neutralization IC50 [29]: 1.8 µg/mL |
